Experimental data reported in US20260028402A1 (published 2026).
Read-outs that look alike come from different tables or passages of the source.

Key:
[1] = target: T1, full-length human CD100 protein HuCD100 on cells (human, UniProt Q92854 22-862); assay: FACS
[2] = target: T1, full-length human CD100 protein HuCD100 …; assay: FACS; HuPBMC cells
CynoCD100-HEK293 = CynoCD100-HEK293 (cynomolgus monkey); assay: FACS
MusCD100-His = target: T2, MusCD100-His (mouse, UniProt O09126 24-733); assay: ELISA; FIG. 5B
T2 chain: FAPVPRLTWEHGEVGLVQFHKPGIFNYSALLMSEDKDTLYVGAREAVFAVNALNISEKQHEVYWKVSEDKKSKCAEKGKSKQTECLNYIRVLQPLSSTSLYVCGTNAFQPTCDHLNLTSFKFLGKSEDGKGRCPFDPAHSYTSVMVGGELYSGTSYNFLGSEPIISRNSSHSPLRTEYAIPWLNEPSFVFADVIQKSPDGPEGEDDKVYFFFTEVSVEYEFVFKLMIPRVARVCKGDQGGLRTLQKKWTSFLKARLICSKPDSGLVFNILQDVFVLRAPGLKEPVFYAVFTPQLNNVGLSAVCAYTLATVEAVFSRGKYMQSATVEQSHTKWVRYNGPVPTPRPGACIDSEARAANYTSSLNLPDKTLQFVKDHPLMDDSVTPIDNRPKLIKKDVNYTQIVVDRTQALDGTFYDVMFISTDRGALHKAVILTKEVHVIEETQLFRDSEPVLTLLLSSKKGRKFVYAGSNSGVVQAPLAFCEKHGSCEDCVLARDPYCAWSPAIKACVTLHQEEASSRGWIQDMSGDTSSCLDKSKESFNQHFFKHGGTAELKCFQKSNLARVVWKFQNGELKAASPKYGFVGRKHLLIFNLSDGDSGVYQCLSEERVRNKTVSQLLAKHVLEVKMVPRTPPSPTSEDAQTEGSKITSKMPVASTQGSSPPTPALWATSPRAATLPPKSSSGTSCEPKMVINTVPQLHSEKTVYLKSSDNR

[3] = target: T3, full-length mouse CD100 protein MusCD100 on cells (mouse, UniProt O09126 24-861); assay: FACS
T3 chain: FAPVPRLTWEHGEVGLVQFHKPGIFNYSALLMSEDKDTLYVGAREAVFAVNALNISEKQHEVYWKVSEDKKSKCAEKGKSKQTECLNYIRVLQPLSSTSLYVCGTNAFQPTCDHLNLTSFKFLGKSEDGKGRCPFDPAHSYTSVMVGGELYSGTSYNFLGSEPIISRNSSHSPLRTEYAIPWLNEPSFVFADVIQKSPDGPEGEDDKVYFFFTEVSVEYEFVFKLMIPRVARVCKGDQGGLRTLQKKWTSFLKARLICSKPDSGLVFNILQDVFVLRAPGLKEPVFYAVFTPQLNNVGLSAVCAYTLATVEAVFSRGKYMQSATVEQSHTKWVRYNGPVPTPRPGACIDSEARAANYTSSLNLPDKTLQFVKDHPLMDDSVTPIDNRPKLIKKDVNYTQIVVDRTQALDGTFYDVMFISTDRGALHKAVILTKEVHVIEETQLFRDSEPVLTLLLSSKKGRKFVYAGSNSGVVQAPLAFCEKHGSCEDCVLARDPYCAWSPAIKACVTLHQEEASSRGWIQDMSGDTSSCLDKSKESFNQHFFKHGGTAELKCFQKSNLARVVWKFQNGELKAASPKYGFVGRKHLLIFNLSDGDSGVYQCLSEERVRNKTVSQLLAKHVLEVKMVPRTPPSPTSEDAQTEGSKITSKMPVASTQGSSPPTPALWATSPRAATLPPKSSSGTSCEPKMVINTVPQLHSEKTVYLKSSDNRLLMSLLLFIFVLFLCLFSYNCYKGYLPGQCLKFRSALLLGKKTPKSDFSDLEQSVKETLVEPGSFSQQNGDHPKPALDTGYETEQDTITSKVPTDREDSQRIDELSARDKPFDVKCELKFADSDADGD

[4] = target: T3, full-length mouse CD100 protein …; assay: FACS
[5] = target: T1, full-length human CD100 protein HuCD100 …; assay: FACS; HuPBMC cells; remark: listed apart in the source
MusCD100-Fc [6] = target: T4, MusCD100-Fc (mouse, UniProt O09126 24-733, biotinylated in the Plexin binding and blocking assays (sites not given)); assay: FACS blocking; MusPlexin-B1-HEK293, FIG. 12E
T4 chain: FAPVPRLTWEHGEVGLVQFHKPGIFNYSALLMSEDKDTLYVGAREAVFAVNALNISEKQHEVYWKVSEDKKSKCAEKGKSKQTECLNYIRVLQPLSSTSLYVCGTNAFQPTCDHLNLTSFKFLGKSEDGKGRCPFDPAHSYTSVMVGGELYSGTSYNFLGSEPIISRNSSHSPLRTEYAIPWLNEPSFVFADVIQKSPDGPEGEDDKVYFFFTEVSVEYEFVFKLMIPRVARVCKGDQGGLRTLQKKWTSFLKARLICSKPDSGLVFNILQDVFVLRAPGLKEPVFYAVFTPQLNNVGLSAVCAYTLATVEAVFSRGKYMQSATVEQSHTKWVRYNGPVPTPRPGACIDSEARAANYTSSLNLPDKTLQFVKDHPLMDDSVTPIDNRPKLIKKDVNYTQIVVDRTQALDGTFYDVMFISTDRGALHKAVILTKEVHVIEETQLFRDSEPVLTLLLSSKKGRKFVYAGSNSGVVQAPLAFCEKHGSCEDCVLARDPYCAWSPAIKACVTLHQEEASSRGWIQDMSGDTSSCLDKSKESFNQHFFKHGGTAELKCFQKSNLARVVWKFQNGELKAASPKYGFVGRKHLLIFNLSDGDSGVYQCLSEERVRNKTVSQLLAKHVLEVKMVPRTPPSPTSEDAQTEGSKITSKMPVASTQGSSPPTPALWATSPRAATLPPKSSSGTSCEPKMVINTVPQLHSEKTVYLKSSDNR

HuCD100-His = HuCD100-His (human, UniProt Q92854 22-734); assay: ELISA; FIG. 5A
[7] = target: T1, full-length human CD100 protein HuCD100 …; assay: FACS; Jurkat cells
CynoCD100-His [8] = target: CynoCD100-His (cynomolgus monkey); assay: ELISA
CynoCD100-Fc = CynoCD100-Fc (cynomolgus monkey); assay: ELISA
MusCD100-Fc [9] = target: T4, MusCD100-Fc; assay: FACS blocking; MusPlexin-B1-HEK293, FIG. 12F
[10] = target: T1, full-length human CD100 protein HuCD100 …; assay: FACS; remark: listed apart in the source
CynoCD100-His [11] = target: CynoCD100-His (cynomolgus monkey); assay: ELISA; FIG. 5C

B1: Pepinemab (antibody, V domains shown)
VH: QVQLVQSGAEVKKPGSSVKVSCKASGYSFSDYYMHWVRQAPGQGLEWMGQINPTTGGASYNQKFKGKATITVDKSTSTAYMELSSLRSEDTAVYYCARYYYGRHFDVWGQGTTVTVSS
VL: DIVMTQSPDSLAVSLGERATINCKASQSVDYDGDSYMNWYQQKPGQPPKLLIYAASNLESGVPDRFSGSGSGTDFTLTISSLQAEDVAVYYCQQSNEDPYTFGQGTKLEIK
- EC50 [1]: 138 pM
- EC50 [2]: 479 pM
- EC50 (CynoCD100-HEK293): 365 pM
- EC50 (MusCD100-His): 205 pM
- EC50 [3]: 274 pM
- EC50 [4]: 276 pM
- EC50 [5]: 412 pM
- IC50 (MusCD100-Fc [6]): 4080 pM
- EC50 (HuCD100-His): 38.3 pM
- EC50 [7]: 275 pM
- EC50 (CynoCD100-His [8]): 0.128 µg/mL
- EC50 (CynoCD100-Fc): 0.388 µg/mL
- IC50 (MusCD100-Fc [9]): 5440 pM
- EC50 [10]: 608 pM
- EC50 (CynoCD100-His [11]): 118 pM
